Assay results as given in patent publication US20190248900A1 (Y BIOLOGICS, published 2019).

Tests used:
Assay in all cases: ELISA
NRG4 = molecular target: T1, NRG4 (Homo sapiens (Human), UniProt Q8WWG1 1-62)
T1 sequence: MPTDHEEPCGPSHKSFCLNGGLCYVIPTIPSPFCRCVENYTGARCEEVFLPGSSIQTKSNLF

SPOCK1 = molecular target: T2, SPOCK1 (Homo sapiens (Human), UniProt Q08629 22-439)
T2 sequence: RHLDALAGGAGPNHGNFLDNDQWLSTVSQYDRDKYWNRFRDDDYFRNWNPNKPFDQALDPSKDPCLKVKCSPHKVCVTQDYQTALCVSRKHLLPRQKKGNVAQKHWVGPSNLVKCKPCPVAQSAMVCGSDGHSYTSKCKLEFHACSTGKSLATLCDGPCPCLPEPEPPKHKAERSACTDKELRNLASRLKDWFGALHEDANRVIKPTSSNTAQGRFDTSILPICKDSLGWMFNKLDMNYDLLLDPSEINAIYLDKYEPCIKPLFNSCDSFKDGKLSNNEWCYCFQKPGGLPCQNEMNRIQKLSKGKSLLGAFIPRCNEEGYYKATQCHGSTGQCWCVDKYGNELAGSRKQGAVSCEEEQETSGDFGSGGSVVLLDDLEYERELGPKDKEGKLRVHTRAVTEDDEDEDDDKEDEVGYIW

FSTL3 = molecular target: T3, FSTL3 (Homo sapiens (Human), UniProt O95633 27-263)
T3 sequence: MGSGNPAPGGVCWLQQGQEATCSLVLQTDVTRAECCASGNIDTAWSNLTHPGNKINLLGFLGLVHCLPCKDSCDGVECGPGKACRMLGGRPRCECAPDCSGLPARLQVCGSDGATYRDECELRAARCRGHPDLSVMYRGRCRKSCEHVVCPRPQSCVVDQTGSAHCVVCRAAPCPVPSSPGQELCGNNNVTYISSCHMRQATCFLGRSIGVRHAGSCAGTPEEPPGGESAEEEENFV

HAPLN4 = HAPLN4 (Homo sapiens (Human), UniProt Q86UW8 30-402)
SLITRK2 = molecular target: T4, SLITRK2 (Homo sapiens (Human), UniProt Q9H156 22-621)
T4 sequence: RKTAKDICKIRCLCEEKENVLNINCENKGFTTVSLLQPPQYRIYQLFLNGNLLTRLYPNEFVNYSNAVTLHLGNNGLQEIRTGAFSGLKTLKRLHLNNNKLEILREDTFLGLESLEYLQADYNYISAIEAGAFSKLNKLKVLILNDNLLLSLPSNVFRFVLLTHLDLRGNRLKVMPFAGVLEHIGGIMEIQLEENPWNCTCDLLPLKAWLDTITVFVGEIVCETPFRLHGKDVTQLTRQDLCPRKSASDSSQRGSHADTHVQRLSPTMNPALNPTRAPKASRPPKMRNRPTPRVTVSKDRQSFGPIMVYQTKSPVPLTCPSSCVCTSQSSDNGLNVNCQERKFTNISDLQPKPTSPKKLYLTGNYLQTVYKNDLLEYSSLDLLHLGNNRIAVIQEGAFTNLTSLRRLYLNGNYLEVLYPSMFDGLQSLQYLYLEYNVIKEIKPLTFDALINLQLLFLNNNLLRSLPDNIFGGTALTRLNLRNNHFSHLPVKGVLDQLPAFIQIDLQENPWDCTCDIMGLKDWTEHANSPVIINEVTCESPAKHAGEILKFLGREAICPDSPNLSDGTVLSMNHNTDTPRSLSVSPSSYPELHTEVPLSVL

SOST = molecular target: T5, SOST (Homo sapiens (Human), UniProt Q9BQB4 24-213)
T5 sequence: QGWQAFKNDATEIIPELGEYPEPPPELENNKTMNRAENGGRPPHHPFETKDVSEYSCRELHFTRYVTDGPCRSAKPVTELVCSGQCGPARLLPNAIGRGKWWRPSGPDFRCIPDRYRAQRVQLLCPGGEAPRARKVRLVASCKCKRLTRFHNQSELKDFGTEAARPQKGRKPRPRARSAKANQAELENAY

RTN4RL1 = molecular target: T6, RTN4RL1 (Homo sapiens (Human), UniProt Q86UN2 25-420)
T6 sequence: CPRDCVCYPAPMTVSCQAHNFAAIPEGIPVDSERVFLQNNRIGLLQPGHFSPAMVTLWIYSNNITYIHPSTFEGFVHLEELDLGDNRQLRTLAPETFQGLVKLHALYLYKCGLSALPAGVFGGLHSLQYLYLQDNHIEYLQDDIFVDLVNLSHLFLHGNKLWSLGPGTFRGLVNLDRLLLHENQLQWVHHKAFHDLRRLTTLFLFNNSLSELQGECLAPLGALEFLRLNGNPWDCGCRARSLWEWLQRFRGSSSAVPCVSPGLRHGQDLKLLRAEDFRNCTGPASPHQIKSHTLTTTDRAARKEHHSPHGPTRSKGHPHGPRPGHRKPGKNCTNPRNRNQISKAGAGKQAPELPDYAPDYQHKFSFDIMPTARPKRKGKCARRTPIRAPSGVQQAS

TMED1 = molecular target: T7, TMED1 (Homo sapiens (Human), UniProt Q13445 24-194)
T7 sequence: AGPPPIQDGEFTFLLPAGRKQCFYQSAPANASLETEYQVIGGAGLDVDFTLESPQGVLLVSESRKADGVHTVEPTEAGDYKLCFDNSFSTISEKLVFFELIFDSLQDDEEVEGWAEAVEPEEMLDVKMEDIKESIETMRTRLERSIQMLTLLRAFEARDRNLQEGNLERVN

APCDD1 = APCDD1 (Homo sapiens (Human), UniProt Q8J025 27-492)
TNF = TNF (Homo sapiens (Human), UniProt P01375 77-233)

Measured: binding result

HAPLN4, sequence (Q86UW8 30-402 limits assumed): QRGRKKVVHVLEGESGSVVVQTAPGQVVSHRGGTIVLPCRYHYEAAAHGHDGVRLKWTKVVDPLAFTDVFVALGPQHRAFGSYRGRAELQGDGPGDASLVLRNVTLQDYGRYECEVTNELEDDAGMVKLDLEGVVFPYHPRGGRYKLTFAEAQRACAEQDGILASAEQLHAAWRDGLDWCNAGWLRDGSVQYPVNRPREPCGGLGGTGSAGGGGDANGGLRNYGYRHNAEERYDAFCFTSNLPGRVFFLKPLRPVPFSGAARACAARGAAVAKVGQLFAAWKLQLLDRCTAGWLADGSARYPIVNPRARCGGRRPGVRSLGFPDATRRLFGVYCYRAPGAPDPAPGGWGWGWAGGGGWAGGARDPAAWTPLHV
APCDD1, sequence (Q8J025 27-492 limits assumed): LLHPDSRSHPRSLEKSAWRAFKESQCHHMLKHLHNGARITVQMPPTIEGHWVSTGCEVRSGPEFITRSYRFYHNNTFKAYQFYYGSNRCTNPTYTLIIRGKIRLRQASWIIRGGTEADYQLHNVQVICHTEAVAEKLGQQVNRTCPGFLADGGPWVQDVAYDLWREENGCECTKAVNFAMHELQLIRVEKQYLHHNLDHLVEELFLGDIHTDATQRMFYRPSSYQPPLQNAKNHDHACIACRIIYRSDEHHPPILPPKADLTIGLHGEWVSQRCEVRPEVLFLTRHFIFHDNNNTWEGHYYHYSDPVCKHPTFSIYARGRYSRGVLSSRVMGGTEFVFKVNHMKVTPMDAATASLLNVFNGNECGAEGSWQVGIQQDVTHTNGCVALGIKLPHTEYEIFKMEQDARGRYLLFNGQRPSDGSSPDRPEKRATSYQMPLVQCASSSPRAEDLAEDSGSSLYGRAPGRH
TNF, sequence (P01375 77-233 limits assumed): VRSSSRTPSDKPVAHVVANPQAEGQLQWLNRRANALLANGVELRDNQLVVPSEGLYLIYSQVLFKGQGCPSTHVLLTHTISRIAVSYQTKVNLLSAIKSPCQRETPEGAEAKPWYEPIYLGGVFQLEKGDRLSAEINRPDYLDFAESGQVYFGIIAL

B1: PD1-41C9 (antibody, V domains shown)
VH: QMQLVESGGGVVQPGRSLRLSCAASGFTFSSYAMHWVRQAPGKGLEWVAVISYDGSNKYYADSVKGRFTISRDNSKNTLYLQMNRLRSEDTAVYYCTTTTFDSWGQGTLITVSS
VL: DIVMTQTPLSLPVTPGEAASISCRSSQSLLDSEDGNTYLDWYLQKPGQSPQLLIYTLSHRASGVPDRFSGSGSGTDFTLKISRVAAEDVGLYYCLQRMGFPYTFGQGTKLDIK
notes: scFv-phage in the screening ELISA; whole IgG in the other assays
no binding (tested: 1 ug/ml): all assays above

B2: PD1-49A2 (antibody, V domains shown)
VH: QVQLVESGGGVVQPGRSLRLSCAASGFTFSSYAMHWVRQAPGKGLEWVAVISYDGSNKYYADSVKGRFTISRDNPKNTLYLQMNSLRAEDTAVYYCTTTTFDSWGRGTLVTVSS
VL: DIVMTQSPLSLPVTPGEPASISCRSSQSLFDSDDGNTYLDWYLQKPGQSPQLLIYTLSHRASGVPDRFSGSGSGTDFTLKISRVEAEDVGIYYCLQRMGFPYTFGQGTKVEIK
notes: scFv-phage in the screening ELISA; whole IgG in the other assays; also called Parent 49A2
no binding (tested: 1 ug/ml): all assays above

B3: PD1-45D6 (antibody, V domains shown)
VH: QVQLVESGGGVVQPGRSLRLSCAASGFTFSSYAMHWVRQVPGKGLEWVAVISYDGNDKYYADSVKGRFTISRDNSKNTLYLQMNSLRAEDTAVYYCVPTTFEYWGQGSQVTVSS
VL: DIVMTQTPLSLPVTPGEAASISCRSSQSLLDSDDGKTYLDWYLQKPGQSPQLLIYTLSYRASGVPDRFSGSGSGTEFNLRISRVEAEDVGIYYCMQRVEFPFTFGQGTKLDIK
notes: as for B1
no binding (tested: 1 ug/ml): all assays above
